One substance from publication PMC8371691 can be followed below.

This experiment deals with N-terminal(Lon)-LotP.His ('Candidatus Liberibacter asiaticus'). The experiment is described as follows: SEC. In general terms: In gel filtration, larger molecules generally elute earlier.

For the substance N-terminal(Lon)-LotP.His, the stoichiometry N (as a rule, the number of molecules, sites or subunits per partner or assembly) was found to be 2.
